In patent EP4785956A2 (CHUGAI SEIYAKU KABUSHIKI KAISHA, dated 2026):

Tests used:
[1] = target: T1, recombinant human C5 (human, UniProt P01031 20-1676); assay: SPR (BIACORE T200), antibody captured by ProA/G, recombinant human C5 injected, 37 degrees C, pH5.8; pH 5.8
T1 construct: The same entry is used here for C5 in normal human serum in the functional rows; also called hC5; rhC5

[2] = target: T1, recombinant human C5; assay: SPR (BIACORE T200), antibody captured by ProA/G, recombinant human C5 injected, 37 degrees C, pH7.4; pH 7.4
[3] = target: T2, recombinant cynomolgus monkey C5 (cynomolgus monkey, UniProt P01031 19-1676 (human entry), limits assumed); assay: SPR (BIACORE T200), antibody captured by ProA/G, recombinant cynoC5 injected, 37 degrees C, pH7.4
T2 construct: also called cynoC5
T2 chain: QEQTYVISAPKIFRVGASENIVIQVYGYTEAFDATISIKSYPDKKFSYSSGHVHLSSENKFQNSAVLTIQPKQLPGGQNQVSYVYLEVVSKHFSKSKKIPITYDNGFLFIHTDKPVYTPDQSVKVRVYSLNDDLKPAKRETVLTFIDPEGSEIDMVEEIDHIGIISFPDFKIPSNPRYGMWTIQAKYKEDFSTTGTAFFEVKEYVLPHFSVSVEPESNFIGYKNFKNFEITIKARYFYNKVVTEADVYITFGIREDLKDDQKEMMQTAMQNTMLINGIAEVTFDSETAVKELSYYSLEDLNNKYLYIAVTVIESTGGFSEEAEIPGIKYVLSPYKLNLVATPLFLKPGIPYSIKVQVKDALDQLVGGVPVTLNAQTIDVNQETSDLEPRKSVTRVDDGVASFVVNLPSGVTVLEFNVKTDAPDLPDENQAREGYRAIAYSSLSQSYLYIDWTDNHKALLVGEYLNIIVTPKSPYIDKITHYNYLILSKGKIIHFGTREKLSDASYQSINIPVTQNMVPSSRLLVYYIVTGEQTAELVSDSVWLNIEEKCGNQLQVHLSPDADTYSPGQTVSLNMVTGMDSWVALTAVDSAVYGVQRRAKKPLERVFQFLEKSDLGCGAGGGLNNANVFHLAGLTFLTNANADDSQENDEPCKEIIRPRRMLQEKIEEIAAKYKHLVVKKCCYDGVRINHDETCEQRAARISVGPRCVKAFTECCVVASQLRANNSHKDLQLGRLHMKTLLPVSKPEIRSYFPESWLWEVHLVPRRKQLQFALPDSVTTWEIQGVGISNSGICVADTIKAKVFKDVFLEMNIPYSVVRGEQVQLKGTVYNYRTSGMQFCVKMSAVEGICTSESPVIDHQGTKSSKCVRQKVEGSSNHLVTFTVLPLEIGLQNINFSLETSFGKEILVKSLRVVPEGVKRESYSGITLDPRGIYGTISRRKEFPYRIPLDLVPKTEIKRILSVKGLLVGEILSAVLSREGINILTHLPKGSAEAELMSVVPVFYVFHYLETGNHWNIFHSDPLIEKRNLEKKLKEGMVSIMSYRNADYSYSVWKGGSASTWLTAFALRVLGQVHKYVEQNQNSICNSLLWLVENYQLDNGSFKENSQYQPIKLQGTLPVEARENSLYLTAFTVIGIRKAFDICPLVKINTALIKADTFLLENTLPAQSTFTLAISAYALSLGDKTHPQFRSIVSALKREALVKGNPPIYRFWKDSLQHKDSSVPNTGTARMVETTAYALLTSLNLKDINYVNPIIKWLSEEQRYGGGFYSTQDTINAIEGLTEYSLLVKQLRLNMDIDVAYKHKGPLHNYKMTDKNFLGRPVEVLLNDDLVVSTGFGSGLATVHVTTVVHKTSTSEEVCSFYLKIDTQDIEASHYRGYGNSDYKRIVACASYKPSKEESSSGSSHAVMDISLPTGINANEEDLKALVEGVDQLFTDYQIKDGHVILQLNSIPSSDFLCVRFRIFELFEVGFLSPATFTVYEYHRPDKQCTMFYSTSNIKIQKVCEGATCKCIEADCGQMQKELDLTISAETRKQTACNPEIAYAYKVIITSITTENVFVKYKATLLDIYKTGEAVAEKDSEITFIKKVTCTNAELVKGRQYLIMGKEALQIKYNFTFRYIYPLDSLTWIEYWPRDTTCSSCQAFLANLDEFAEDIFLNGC

[4] = target: T1, recombinant human C5; assay: SPR (BIACORE T200), ratio of kd of condition (2) and (1)

Row | Binder | koff [1] | kon [1] | koff [2] | kon [2] | koff [3] | kon [3] | pH dependency (ratio of dissociation rate at pH5.8 to that at pH7.4) [4]
1 | CFA0501 (antibody, V domains shown) VH: QSVEESGGRLVTPGTPLTLTCTASGFSLSSYYMNWVRQAPGKGLEWIGMIYGSGATYYASWAKGRFTISKTSSTTVDLKMTSLTTEDTATYFCARQIYSGDNNDNFWGPGTLVTVSS VL: AYDMTQTPASVEVAVGGTVTINCQASESISNWLAWYQQKPGQRPKLLIYRASTLASGVSSRFKGSGSGTQFTLTISGVECDDAATYYCQQDYSSSNVDNTFGGGTKVVVE | 0.0262 s⁻¹ | 150000 M⁻¹ s⁻¹ | 0.00169 s⁻¹ | 474000 M⁻¹ s⁻¹ | 0.00156 s⁻¹ | 266000 M⁻¹ s⁻¹ | 
2 | CFA0538 (antibody, V domains shown) VH: QSVEESGGRLVTPGTPLTLTCTASGFSLSSYYMNWVRQAPGKGLEWIGMIYGSGATYYASWAKGRFTISKTSSTTVDLKMTSLTTEDTATYFCARQIYSGDNNDNFWGPGTLVTVSS VL: AYDMTQTPASVEVAVGGTVTINCQASESISNWLAWYQQKPGQRPKLLIYRASTLASGVSSRFKGSGSGTQFTLTISGVECDDAATYYCQQDYSSSNVDNTFGGGTTVVVE | 0.0301 s⁻¹ | 122000 M⁻¹ s⁻¹ | 0.00185 s⁻¹ | 473000 M⁻¹ s⁻¹ | 0.00166 s⁻¹ | 305000 M⁻¹ s⁻¹ | 
3 | CFA0599 (antibody, V domains shown) VH: QSVEESGGRLVTPGTPLTLTCTVSGLSLSDNTMTWVRQAPGKGLEWIGIISFGGDAYYASWAKGRFPISKTSTTVDLRITSPTTEDTATYFCARVGAGNIFWYFDLWGPGTLVTVSS VL: AYDMTQTPASVEVSVGGTVTIKCQASESIYSALAWYQQKPGQPPKLLIYSASTLASGVPSRFKGSGSGTEYTLTISDLECADAATYYCQQYYSSTNVHNSFGGGTTVVVE | 0.0373 s⁻¹ | 454000 M⁻¹ s⁻¹ | 0.00281 s⁻¹ | 474000 M⁻¹ s⁻¹ | 0.00235 s⁻¹ | 542000 M⁻¹ s⁻¹ | 
4 | CFA0307 (antibody, V domains shown) VH: QSLEESGGGLVKPGASLTLTCKASGIDFSNFYYICWVRQAPGKGLDLIACIYTVSGYTYYASWAKGRLTISKTSSTTVTLQMTSLTAADTATYFCARDLHAGITNLWGPGTLVTVSS VL: AIEMTQTPFSVSAAVGGTVTIKCQASQNIYSNLAWYQQKPGQRPKLLIYGASNLESGVPSRFKGSGSGTEYTLTISDLECADAATYYCLQGYSYSNVDDAFGGGTEVVVK | 0.0334 s⁻¹ | 204000 M⁻¹ s⁻¹ | 0.00263 s⁻¹ | 324000 M⁻¹ s⁻¹ | 0.00223 s⁻¹ | 290000 M⁻¹ s⁻¹ | 
5 | CFA0672 (antibody, V domains shown) VH: QSVEESGGRLVTPGTPLTLTCTASGFSLSGNAINWVRQAPGKGLEWIGCIYTGSDTTYYATWAKGRFTISKTSTTVDLKIASPTTEDTATYFCARGSGLWGPGTLVTVSS VL: DVVMTQTPASVSAPVGGTVTIKCQASQNIYSLLAWYQQKPGQPPKLLIYHTSDLASGVPSRFRGSGSGTEFTLTISDLECADAATYYCQCTAYGSSDVGGTFGGGTTVVVE | 0.00978 s⁻¹ | 71100 M⁻¹ s⁻¹ | 0.000183 s⁻¹ | 523000 M⁻¹ s⁻¹ | 0.00185 s⁻¹ | 641000 M⁻¹ s⁻¹ | 
6 | CFA0366 (antibody, V domains shown) VH: QSLEESGGDLVKPGASLSLTCTAAGLDFSSSYYMCWVRQAPGKGLEWIACIYAGSSGIIYYANWAKGRFTISRPSSTTVTLQMTSLTAADTATYFCATYPTYGDGGHAFNLWGPGTLVTVSS VL: AQVLTQTPSSVSAAVGGTVTINCQSSQSVYSSDYLSWYQQKPGQPPKLLIYEASKLASGVPPRFSGSGSGTQFTLTISGVQCDDAATYYCQGTYYSSGWYFAFGGGTEVVVK | 0.0703 s⁻¹ | 935000 M⁻¹ s⁻¹ | 0.00934 s⁻¹ | 1.04e+06 M⁻¹ s⁻¹ | 0.00904 s⁻¹ | 504000 M⁻¹ s⁻¹ | 
7 | CFA0341 (antibody, V domains shown) VH: QSVEESGGRLVTPGTPLTLTCTVSGIDLSSYTMGWVRQAPGKGLECIGYIHSFGSTYYASWAKGRFTISKTSTTVDLEITSPTTEDTATYFCARDVGGSSGWDLWGQGTLVTVSS VL: DVVMTQTPSSVSAAVGGTVTIKCQASENIYSNLAWYQQKPGQPPKRLIYDASDLASGVPSRFSGSGYGTQFTLTISGVQCEDAATYYCQANYDSTSSSFGNVFGGGTEVVVK | 7.39e-05 s⁻¹ | 1.24e+06 M⁻¹ s⁻¹ | 9.77e-05 s⁻¹ | 628000 M⁻¹ s⁻¹ |  |  | 
8 | CFA0666 (antibody, V domains shown) VH: QSVEESGGRLVTPGTPLTLTCTVSGFSLSTYAMGWVRQAPGKGLEWIGTIDTGDNSFYANWAKGRFTISKTSTTVDLKITSPTAEDTATYFCARNDGSVYNLFNLWGPGTLVTVSS VL: DVVMTQTPASVSAAVGGTVTIKCQASENIYSALSWYQQKPGLRPRLLIYYASTLASGVPSRFKGSRSGTEFTLTISDLECADAATYYCQQYYDINSVDNTFGGGTKVVVE | 0.00939 s⁻¹ | 282000 M⁻¹ s⁻¹ | 0.000626 s⁻¹ | 365000 M⁻¹ s⁻¹ | 0.000493 s⁻¹ | 314000 M⁻¹ s⁻¹ | 
9 | CFA0675 (antibody, V domains shown) VH: QSVEESGGRLVTPGTPLTLTCTVSGFSLSTYAMGWVRQAPGKGLEWIGTIDTGDNSFYANWAKGRFTISRTSTTVDLKITSPTAEDTATYFCARNDGSVYNLFNLWGPGTLVTVSS VL: DVVMTQTPASVSAAVGGTVTIKCQASENIYSALSWYQQKPGLRPRLLIYYASTLASGVPSRFKGSRSGTEFTLTISDLECADAASYYCQQYYDINSVDNTFGGGTKVVVE | 0.00661 s⁻¹ | 389000 M⁻¹ s⁻¹ | 0.000412 s⁻¹ | 383000 M⁻¹ s⁻¹ | 0.000378 s⁻¹ | 294000 M⁻¹ s⁻¹ | 
10 | CFA0305 (antibody, V domains shown) VH: QSLEESGGDLVKPGASLAVTCTASGFSSSSSYYMCWVRQAPGKGLEWIGCIYTGSGATYYASWAKGRFTISKTSSTTVTLQMTSLTVADTATYFCASDGGYVTPTHAMYLWGPGTLVTVSS VL: DVVMTQTPASVSAAVGGTVTIKCQASQNIGSDLAWYQQKPGQPPRLLIYGASKLASGVSSRFSGSGSGKEFTLTISDLECADAVTYYCQCTFVGSSYGNAFGGGTEVVVK | 0.0183 s⁻¹ | 42700 M⁻¹ s⁻¹ | 0.000589 s⁻¹ | 38200 M⁻¹ s⁻¹ | 0.00067 s⁻¹ | 12100 M⁻¹ s⁻¹ | 
11 | 305LO16-SG422 (antibody, V domains shown) VH: QVQLVESGGGLVQPGRSLRLSCAASGFTVHSSYYMAWVRQAPGKGLEWVGAIFTGSGAEYKAEWVKGRFTISRDNSKNTLYLQMNSLRAEDTAVYYCASDAGYDYPTHAMHYWGRGTLVTVSS VL: DIQMTQSPSSLSASVGDRVTITCRASQGISSSLAWYQQKPGKAPKLLIYGASETESGVPSRFSGSGSGTDFTLTISSLQPEDFATYYCQNTKVGSSYGNTFGGGTKVEIKR |  |  |  |  |  |  | 21.1
12 | CFA0330 (antibody, V domains shown) VH: QSLEESGGDLVEPGASLTLTCTASGFSWNSGYDMCWVRQAPGKGLEWIACIYTGSSANTAYANWAKGRFTISKTSSTTVTLQMTGLTAADTATYFCARHDDYFFDLWGPGTLVTVSS VL: DVVMTQTPASVSESVGGTVTINCQASQSIGNNLAWYQQKPGQPPKLLIYDASNLASGVPSRFKGSRSGTEPTLTNTLTISGVQCADVATYYCQSGWYGNSYVAAFGGGTEVVVKR | 0.000224 s⁻¹ | 1.22e+06 M⁻¹ s⁻¹ | 0.000202 s⁻¹ | 1.66e+06 M⁻¹ s⁻¹ |  |  | 
